Each block holds one substance with its values, some of them ahead of it.
Biological target: C3 convertase of the alternative pathway (C3bBb) formed on C3b-coated wells (UniProt P01024)
Assay: cell-based or functional assay

C3 convertase of the alternative pathway (C3bBb) formed on C3b-coated wells, sequence (P01024 749-1663 limits assumed, chain 1 of 3): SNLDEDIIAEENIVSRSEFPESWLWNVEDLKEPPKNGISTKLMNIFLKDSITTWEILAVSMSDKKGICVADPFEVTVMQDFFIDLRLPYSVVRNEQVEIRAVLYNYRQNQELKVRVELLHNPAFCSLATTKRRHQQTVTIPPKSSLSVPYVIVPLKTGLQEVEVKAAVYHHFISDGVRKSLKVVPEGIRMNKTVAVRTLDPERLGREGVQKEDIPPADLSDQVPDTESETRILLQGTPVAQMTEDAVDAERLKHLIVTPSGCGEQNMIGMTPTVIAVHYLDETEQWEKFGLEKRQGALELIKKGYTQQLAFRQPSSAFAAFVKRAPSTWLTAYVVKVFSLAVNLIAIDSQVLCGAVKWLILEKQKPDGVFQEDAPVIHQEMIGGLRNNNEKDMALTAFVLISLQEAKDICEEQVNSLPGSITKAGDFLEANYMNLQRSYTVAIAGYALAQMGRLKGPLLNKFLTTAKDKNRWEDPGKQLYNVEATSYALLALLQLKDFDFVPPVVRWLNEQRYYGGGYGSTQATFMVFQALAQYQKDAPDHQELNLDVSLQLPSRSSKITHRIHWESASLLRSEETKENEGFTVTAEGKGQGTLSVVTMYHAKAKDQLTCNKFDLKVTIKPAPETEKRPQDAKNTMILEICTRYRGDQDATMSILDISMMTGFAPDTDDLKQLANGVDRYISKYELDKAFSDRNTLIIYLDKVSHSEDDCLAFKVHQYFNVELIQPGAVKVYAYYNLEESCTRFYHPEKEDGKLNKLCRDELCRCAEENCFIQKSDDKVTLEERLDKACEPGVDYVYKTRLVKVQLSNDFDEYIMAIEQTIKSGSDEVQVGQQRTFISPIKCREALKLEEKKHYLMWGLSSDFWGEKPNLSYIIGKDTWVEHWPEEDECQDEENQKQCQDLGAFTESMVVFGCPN
C3 convertase of the alternative pathway (C3bBb) formed on C3b-coated wells, sequence (P01024 23-667 limits assumed, chain 2 of 3): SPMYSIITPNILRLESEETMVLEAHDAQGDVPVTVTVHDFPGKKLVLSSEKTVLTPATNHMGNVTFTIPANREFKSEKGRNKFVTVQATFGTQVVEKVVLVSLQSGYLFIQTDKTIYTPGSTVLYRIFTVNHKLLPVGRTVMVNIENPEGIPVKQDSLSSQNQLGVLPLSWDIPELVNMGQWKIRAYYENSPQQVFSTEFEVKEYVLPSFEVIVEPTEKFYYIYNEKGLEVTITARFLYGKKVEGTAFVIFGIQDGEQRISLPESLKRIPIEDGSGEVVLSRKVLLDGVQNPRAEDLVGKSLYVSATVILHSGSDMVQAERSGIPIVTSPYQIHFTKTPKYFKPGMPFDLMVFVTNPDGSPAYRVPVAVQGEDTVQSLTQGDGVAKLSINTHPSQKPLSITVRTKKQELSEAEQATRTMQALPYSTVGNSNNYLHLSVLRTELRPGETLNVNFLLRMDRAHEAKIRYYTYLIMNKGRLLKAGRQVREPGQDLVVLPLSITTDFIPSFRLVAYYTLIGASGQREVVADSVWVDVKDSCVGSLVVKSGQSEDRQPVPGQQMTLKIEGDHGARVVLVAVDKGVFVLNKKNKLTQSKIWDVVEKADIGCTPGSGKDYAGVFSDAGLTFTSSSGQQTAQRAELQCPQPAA
C3 convertase of the alternative pathway (C3bBb) formed on C3b-coated wells, sequence (P00751 260-764 limits assumed, chain 3 of 3, further chain): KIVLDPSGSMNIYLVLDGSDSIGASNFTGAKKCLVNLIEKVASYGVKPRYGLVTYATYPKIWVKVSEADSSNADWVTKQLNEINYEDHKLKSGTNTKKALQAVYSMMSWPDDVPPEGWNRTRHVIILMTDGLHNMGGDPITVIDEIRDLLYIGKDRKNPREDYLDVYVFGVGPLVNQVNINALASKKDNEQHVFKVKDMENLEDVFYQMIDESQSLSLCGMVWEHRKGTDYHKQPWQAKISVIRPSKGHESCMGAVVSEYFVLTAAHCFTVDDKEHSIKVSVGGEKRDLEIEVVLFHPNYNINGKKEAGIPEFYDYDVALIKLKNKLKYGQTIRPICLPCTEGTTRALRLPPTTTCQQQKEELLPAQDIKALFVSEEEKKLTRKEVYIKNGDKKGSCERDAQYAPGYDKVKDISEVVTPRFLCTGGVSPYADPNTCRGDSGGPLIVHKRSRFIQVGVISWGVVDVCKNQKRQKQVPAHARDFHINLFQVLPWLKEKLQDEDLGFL

IC50, acceleration of the dissociation of C3 convertase (sample: FH plasma calibrator (The binding site)): 0.0681 µg/mL
Substance: Human Factor H Calibrator NL (The Binding Site, Ref: RP030) (from UniProt P08603 19-1231)

mean IC50 (printed '1050'), acceleration of the dissociation of C3 convertase, pool plasma: 0.058 µg/mL
Substance: factor H of the pool plasma (ECQ 1) (from UniProt P08603 19-1231)

IC50, acceleration of the dissociation of C3 convertase (sample: Formulated plasma FH, purified protein): 0.0179 µg/mL | IC50, acceleration of the dissociation of C3 convertase (sample: Formulated purified FH plasma): 0.0546 µg/mL | IC50, acceleration of the dissociation of C3 convertase (sample: Plasma FH PBS 1X): 0.0152 µg/mL | IC50, acceleration of the dissociation of C3 convertase (sample: Purified FH plasma PBS 1X): 0.0438 µg/mL
Substance: purified human plasma factor H (batch LFB) (from UniProt P08603 19-1231)
